Values of other authors in patent US20260009081A1, “CLONAL HEMATOPOIESIS AND CYTOKINE TARGETS” (TRUSTEES OF BOSTON UNIVERSITY, priority 2018, published 2026).

Biological target: T1, IL-1β (Homo sapiens, UniProt P01584)
T1 construct: endogenous in cells; host or cells: CANTOS trial patients (endogenous cytokine)

Substance: canakinumab: IL-1β neutralizing antibody; interleukin 1 beta monoclonal antibody
- side effect of therapy (patients): infection side effect
- major adverse cardiovascular events (patients with stable coronary artery disease and elevated C-reactive protein): can reduce major adverse cardiovascular events
